Assay results: the DeepSol protein solubility set

test: soluble on expression in E. coli; label from the status in PepcDB or PDB records

Soluble on expression in E. coli, not soluble:
MQRVDLNSDLGESFGAYTIGQDDRVLEHVTSANIACGYHAGDHNVMARTVKLAADKGMGIGAHPGFPDLLGFGRRNIQTDHKDIYNFIVYQVAALNGFCQLHRVRMQHVKPHGALYNMAAKDRVIAEAIAEAIYDIDPSLILFGLSGSELIKAGKKLGLTVANEVFADRTYQPDGTLTPRSEANALIKESERATEQVIQMVKESKVIAVDGSHIPIEADTICVHGDSPTALSFIERLHAQLQVEGVTVTKVSDFLFKLEHHHHHH, MEQKTENKWPLQFEVIEEIKQVGRWSAPSWRLGDIHLYEKVNETQDNVSLFERDLEIFRDERTDYRFNLSSQDPKLFFAFENDNDQLTPVMITASQSMIGQYMDGDYLVLSTAMPLPMQAWLEAYIGKHGELLEVRKKKRKGAGRASEQLPK, MKEKYRHSLKARFFLKDNFLKSEPVFWFHACSYGEVKSLEPIIHALKEPILISVTTNTGFELAAQTYQHSKHIEVRYLPFETLLFAWKKNLKRLKTLVVTEAELWFNVFDTAQKLGAKTMLINARISVRSYPKYQRFSFFYALLFKRIDLILAQSKEDKKRLLNLGAKKVVDFLNIKRFSKPLEHHHHHH, MCINIRLEKTRDIQSIHAITIAAFLDAPHTDHTEQFIVDALRDSGALSVSLIAEDSSKIIGHVALSPVTISDGSKDWYGLGPISVVPTDQNKGIGSKLMHAALRELNNLNANGCVLLGDPNYYRRFGFEPIGGLVLPDVPPEYFQATLLKGSYPTGVVTYHESFSAQS, MVHYKLSYFPIRFAGEIPRQILAYAGQKFEDHRIPQADWPALKSTMPFGTLPVLYQDGKPLGQSHAISRFLARQFGINGRCPWEEAQVNAIADQFKDYLNDIRSYNLVKMGFAQGDADALYKDTFLPNFKKNYQFFTNFLKASGSGFLIGDSVTWVDLLIAQHTSDLLSDSGSVFAASQSLLDEFPELKAHQKKIHSIPNIKKWVETRPVTPF, MKEANLLIDLRGEPGINCNGFCKFCYFRKVNKNNPQPFGCRYCQFTVGCDYCMYSVREINGDFIPLPFALMELQSSLLFKRYSKVNLTAGGDVSCYPQLEELCKAINNIGLKIHLGYTSGKGFDNVEIAKNLVDYGVDEVTFSVFSTNPKLRKEWMNDKNAETALKCLRYFCENCEVHCAIIVIPGVNDGEELKKTVSDLVDWGANAVILMRFANSEEQGLILGNAPLIEGIKPHSVEEFKNIVDEIHNEFGDYIRVTGTPLHDPVAGTPFALAKEENSHILERLKDKINGEATIITGNVAYPFLKKIFDETSVNVVKVNKDIADLITAKDLEKLDLKDVKETVFIPPKAFVHDRVAEEILRRDGVDRIVVRGVEQLTLDGEVSGIYTREEALKFEIEAFEELIGMINFFGMKKQ, PYARFQSAMFDKDTLIVSYDAERGEPRGARKKTVNKEEAGLGDCINCAMCVQVCPVGIDIRNGLQYQCIGCAACIDACDEIMDKMGYPRGL, MGSDKIHHHHHHMISFFLSDLIKSILNIQDNNISFSEEECCQVTQKGDYLLKVFKGFLKSDYCTCPHCSSKNIVKNGSRHRKIKYIPIQNYNIELELTVQRYICKDCKKNFSPSTNIVSDNSSISNNLKYAIALELQKNISLTSIAKRYNISIPSVQRIMDNCYSDFKVNKKHLPEAICIDEFKSVKNIDGAMSFVFADYQSKSIIDIVEDRRLHSLTEYFSRFSLEARNNVKYICMDMYTSYISLVNSIFPNAKIVLDKFHIVNLVNRAFNQTRISIMNSIQDDSLKRKFKLFWKSLLKYYPDLCQINYYCQSFKRKLSSKLSLRKKP, MILTITYTQPPATDLGYLLHKNPSRPQTFELNHGKAHIFYPEATSERCTVALLLDIDPIDLARGKKGSSGEGGLFDYVNDRPYVSSSFMSVAISRVFGTAMSGKCKEKPELAAIKLPLKAKIMMLPCKGGEEIIYRLFEPLGYKVDVEGYMLDEKFPEWGKSRYYTVSLEGEVRVRDLLNHIYVLIPVLDSEKHYWVGEDEIDKLFQHGEGWLVDHPEKELITGRYLIRKKRLVNQALKRLLEASDVVDDENEDDEPLKNEETEKKLNLNQQRLGTVVAVLKSVNAKKVIDLGCGEGNLLSLLLKDKSFEQITGVDVSYSVLERAKDRLKIDRLPEMQRKRISLFQSSLVYRDKRFSGYDAATVIEVIEHLDENRLQAFEKVLFEFTRPQTVIVSTPNKEYNFHYQNLFEGNLRHRDHRFEWTRKEFETWAVKVAEKYGYSVRFLQIGEIDDEFGSPTQMGVFTL, MSLTGGISAFGRMVWEGIQIAHEEKPTVLGEEVELVLLDTRSEKTEAANAAARAIDKEKVLAIIGEVASAHSLAIAPIAEENKVPMVTPASTNPLVTQGRKFVSRVCFIDPFQGAAMAVFAYKNLGAKRVVVFTDVEQDYSVGLSNFFINKFTELGGQVKRVFFRSGDQDFSAQLSVAMSFNPDAIYITGYYPEIALISRQARQLGFTGYILAGDGADAPELIEIGGEAVEGLLFTTHYHPKAASNPVAKKFVEVYKEKYGKEPAALNALGYDAYMVLLDAIERAGSFDREKIAEEIRKTRNFNGASGIINIDENGDEGHHHHHH, MRILAFPYTHTLSHLSRVLAVALELRRMGHEVVFAGESAKVSFVSQQGFDVVPIHEPDPEMLFGNIRSGKLRFVEDAELLQMLTADIEVIRSLKPDLVLSDGRFSAPLSTHLTNVRHAAIVNASSTEYRALPYVPFFDWMPPWLISRDAMIWKALVRLNLFLEMKLFDNVMKVFKRLSRELNTNRTVTATNCLTGKDITLLADIPEYFPSRNLPASYHYVGPLTWKSVLAPPAWWPLDIPSSPLVYVTMGTTGVSEFFSKLGPSLSTSFFSSIVTTGGQSSELKPMPGKVYVESYLDGDLVMERSDVVICHGGNGTIYQALSHGKPVIGIPTIPDQKFNMRRVEAMGFGKSLDLKQFLEKPSLLADTVKQVLSDHSFRNSAQKIQAVLKSYNAATTSAKILIDSILLEHHHHHH, MGSDKIHHHHHHMGTKKNFVIDTNVILHDYNCLKNFQENDIHLPLVVLEELDKFKKGNEQINFNAREFVRELDLLTSDELFSQGVSLGEGMGRLFVVPGNVDAPKVHESFPVKKPDHLILAAVEYLAAKYPKTPAILVTKDVNLRMKARSIGITSEDYITDKVSNVDIFEKSNEIFENVDPALIDRIYSSKEGIDLSEFDFKDVIHPNECFVLKSDRNSVLARYNPFTHSICRVTKGRNYGIEPRNAEQSFAFEILNDPNVKLVALTGKAGTGKTLLALAAALGKLTDYKQVLLARPVVALSNKDIGFLPGDAQEKVAPYMQPLFDNLNVIKRQFAANSTEVKRIEDMQKSEQLVIEALAFIRGRSLSEMYCIIDEAQNLTPNEIKTIITRAGEGTKMVFTGDIQQIDQPYLDSQSNGLVYMIDRMKDQNIFAHVNLVKGERSQLSELASNLL, MGSDKIHHHHHHMLRVWVGSKPVGVLDRSGRRGSTFVYDVKADDRDAVSLTMPKRTESWNSEFGLLPIFDMNLPEGALEGKIRTAFAKALGHFDDLDLLAVVGRSQIGRIRFTGMDEELVEDVPFRSIDDLLRARRAGDLYNDLLETYAVHSGVAGVQPKVLVRAREDDPSDGRQSLSVRGATHIVKMWDPDEYPELAANEFFCLMAAQQVGLEVPDFRLSEDGLALVVERFDLTDGSYSGYEDFCALNGVTSKDKYNGGYETKLFKRIKEFVSPENAVGSLEVAFRLFVINCGIRNGDAHLKNFGVVYKDAESPVRLAPVYDLITTRAYIKNDAMALTLDGSTAWPDRKKLDRLGVTRANLRPGRVAEIVEQTCDALSDVSGRVKAYFEESSFPEVGEKMLREWQAGVGSLSEGKTIHLMEALDATSARND

Soluble on expression in E. coli, soluble:
AIANVWLLGRGELRRRHDDVLQLERAFLTDRTGLHFVNARSSEDLLALAESRRAEQQWPVLDAEWISPVGTDTCDDLVWQNLESTLDGRPDTFYSTAGFEAGNTLSGTGELAPGEAFLAYRFWRPVRVYAVQLRAFQADFHPGRPVYPFQVARVGVGCSLQAGMSLSYGADASAPGTSCNYRCFCTTEQQTLVFDDPMVGVYLVICLKGFPQQQLTDRLHYAAVSGIRVFGEPISSPALENELSCLISRGFILDGRDAARWLDLRSAQEHAAPMHIPEDEVI, MLKSVQGLWKDFFGIRDDGRKREYGSLDEVRKRSALRSRRKQMRPTGKSVLKRPRKVTDRKTEEKIRTNRRKTPKRRLTKIFQTIRDVFSNDNENMSKMQNVCGDMTRILKKRSQGRPSYMDTDTAKSRILRSDAFKRKISELKYNKQRISELRSGSSDGSSGKDRNQSLYLDREILLQRQIKKRDEKIKALESKLQSLQEALNYSNEKYRILEDLLDSSNIHPSYTKSRRTMSNLARENDEIKPLKIDLSPSPIRRTNSLFTSSPMKTYNRDGNIPEMQPLQENISPACPTPPYRSRETEKEDETLSPISVDFSSYLS, MSEDDPRPLHIRRQGLDPADELLAAGALTRVTIGSGADAETHWMATAHAVVRQVMGDHQQFSTRRRWDPRDEIGGKGIFRPRELVGNLMDYDPPEHTRLRRKLTPGFTLRKMQRMAPYIEQIVNDRLDEMERAGSPADLIAFVADKVPGAVLCELVGVPRDDRDMFMKLCHGHLDASLSQKRRAALGDKFSRYLLAMIARERKEPGEGMIGAVVAEYGDDATDEELRGFCVQVMLAGDDNISGMIGLGVLAMLRHPEQIDAFRGDEQSAQRAVDELIRYLTVPYSPTPRIAREDLTLAGQEIKKGDSVICSLPAANRDPALAPDVDRLDVTREPIPHVAFGHGVHHCLGAALARLELRTVFTELWRRFPALRLADPAQDTEFRLTTPAYGLTELMVAW, MGSDKIHHHHHHENLYFQGMKKVFITTGTEHYLRQLMENYIGENVTLLQNFSQSLLYQESTGEKLFQEGKEYRVLQSSGSLKGFGIVVFEYIQLRDEEIPIFLQMYQHASLHFSETPGLQSTKLTKAMNTNQFLIVSFWDSEVFFQEWKKTPLHKEITSIMKKNNTQVGFSHEDIYHYPEFSHDAK, MSFHVRFTLEAKADIERLYRFLAEHDFDVAERTLETIDSAWSLLEQFPFSCRKIDDANPFLREFIISFGNSGYVVLFEIEDSNTVTVLAVRHQLEDDYY, MEPHKVVPLSKPHPPVVGKVTHHSIELYWDLEQKEKRQGPQEQWLRFSIEEEDPKMHSYGVIYTGYATRHVVEGLEPRTLYKFRLKVTSPSGEYEYSPVVSVATTRE, MTDQPIIDYRFLEPLPRGIILAATPLGNIGDASPRLAQALAQAHVVAAEDTRRTRALAQALGVEITGQVLSNFDHNEQGRAQQLVEMARTHTVVVVTDAGMPIVSDPGFPLVEAAHKAGVPVTCFPGPSAVPTALALSGLHVGKFAFDGFAPRKQGQRRAWLESLQQEQRAVCFFESPHRIAATLADAAEVLGAKRRAAVARELTKTFEEVRRGGLGELAEWAAKGIKGEVSVVIEGVQHVQHEDVHSLVAVVEERVLAGERLKSACGEVAAHYGVSKKQLYDAVLESRAE, SVPLVAVVSGPRAQLFACLLRLGTQQVGPLQLHTGASHAARNHYEVLVLGGGSGGITMAARMKRKVGAENVAIVEPSERHFYQPIWTLVGAGAKQLSSSGRPTASVIPSGVEWIKARVTELNPDKNCIHTDDDEKISYRYLIIALGIQLDYEKIKGLPEGFAHPKIGSNYSVKTVEKTWKALQDFKEGNAIFTFPNTPVKCAGAPQKIMYLSEAYFRKTGKRSKANIIFNTSLGAIFGVKKYADALQEIIQERNLTVNYKKNLIEVRADKQEAVFENLDKPGETQVISYEMLHVTPPMSPPDVLKTSPVADAAGWVDVDKETLQHRRYPNVFGIGDCTNLPTSKTAAAVAAQSGILDRTISVIMKNQTPTKKYDGYTSCPLVTGYNRVILAEFDYKAEPLETFPFDQSKERLSMYLMKADLMPFLYWNMMLRGYWGGPAFLRKLFHLGMS, AATTVNGGTVHFKGEVVNAACAVDAGSVDQTVQLGQVRTASLAQEGATSSAVGFNIQLNDCDTNVASKAAVAFLGTAIDAGHTNVLALQSSAAGSATNVGVQILDRTGAALTLDGATFSSETTLNNGTNTIPFQARYFATGAATPGAANADATFKVQYQGGGGGGAATTVNGGTVHFKGEVVNA
